This note sets out measurements from patent US12539335B2, “Tricyclic polypeptide conjugated drug and use thereof” (CONJUSTAR (ZHUHAI) BIOLOGICS CO., LTD., priority 2021, dated 2026).

Structures can show the parent of a compound that is named as a salt. Starred links: 1 amine or outer side, 2 acyl side, 3 side chain; linkers in the order of their positions; H or OH if unused. Positions of bridges follow the written chain, without caps; N, C: chain ends. Non-standard residues stand in square brackets, D forms with d. Residues, ends and D or L forms follow the SMILES beside them. Chains are numbered I, II in the order given. *: point of attachment. TATA = O=C(CC[*:1])N1CN(C(=O)CC[*:2])CN(C(=O)CC[*:3])C1; Dolaproine = CO[C@@H]([C@@H]1CCCN1)[C@@H](C)C(=O)O; Dil = CC[C@H](C)[C@H](NC)[C@@H](CC(=O)O)OC; 1Nal = N[C@@H](Cc1cccc2ccccc12)C(=O)O; X2 = O=C(CCCC(=O)[*:2])NCCC(=O)[*:1]; PABC = O=C(OCc1ccc(N[*:1])cc1)[*:2]; X1 = C[C@@H](N*)[C@@H](O)c1ccccc1; Hyp = O=C(O)[C@@H]1C[C@@H](O)CN1; hArg = N=C(N)NCCCC[C@H](N)C(=O)O; Cit = NC(=O)NCCC[C@H](N)C(=O)O; Pen = CC(C)(S)[C@H](N)C(=O)O; NMeV = CN[C@H](C(=O)O)C(C)C; Sar = CNCC(=O)O A value given as a limit tells only on which side of the number the result lay.

The nature of data set [1]: Pharmacokinetic analysis in Cynomolgus macaque plasma. The note with it: cynomolgus monkey, Cynomolgus macaques, single IV 1 mg/kg, plasma. The data set is classed as in vivo. As for the experimental part:
Test Example 6: Pharmacokinetic Analysis in Cynomolgus Macaque Plasma
To test the pharmacokinetics of the compounds of the present invention in Cynomolgus macaques.
(§1) The pharmacokinetic characteristics of the compound after intravenous injection were tested according to a standard protocol in Cynomolgus macaques. The compound to be tested was formulated into a clear solution using 25 mM L-histidine (pH=7) in 10% sucrose as a vehicle. Cynomolgus macaques were given a single intravenous injection of 1 mg/kg of the compound to be tested. Whole blood was collected at time points of 0.083, 0.25, 0.5, 1, 2, 4, 8, and 24 hours after administration to get plasma. The concentration of the compound to be tested and the concentration of its potential metabolite MMAE were analyzed by the LC-MS/MS method, and the pharmacokinetic parameters were calculated by Phoenix WinNonlin software.

A further data set has as its system MDA-MB-468 cells. Briefly: In vitro anti-proliferative activity, CellTiter-Glo, MDA-MB-468. It is filed as cell-based, Human. The note with it: MDA-MB-468, 72 h. As for the experimental part: Test Example 2: In Vitro Anti-Proliferative Activity of the Compounds of the Present Invention on Nci-H292 and Mda-Mb-468 Cells
To investigate the effect of the compounds of the present invention on inhibiting cell proliferation by detecting the effect of the compounds on cell activity in vitro in tumor cell lines MDA-MB-468 and NCI-H292.
The tumor cell lines were cultured in a 37° C., no CO2 incubator and a 37° C., 5% CO2 incubator according to the culture conditions shown in Table 8, respectively. The cells were periodically passaged, and cells in a logarithmic growth phase were taken for plating.
Cells in a logarithmic growth phase were harvested and centrifuged at 1000 rpm for 3 min at room temperature. The supernatant was discarded, and the cells were resuspended in 5 mL of a culture medium. Then, 20 μL of the cell suspension was pipetted and mixed with trypan blue at 1:1 for staining for 3 min to detect cell viability and to count viable cells. The cell density was adjusted to 3000 cells/well. Then, 90 μL of the cell suspension was added to each culture plate well, and a cell-free culture medium was added to blank control wells. The culture plate was incubated overnight in a 37° C., no CO2, and 100% relative humidity incubator and a 37° C., 5% CO2, and 100% relative humidity incubator, respectively.
Preparation of a 400× compound stock plate: The compound to be tested was gradient diluted with DMSO from the highest to the lowest concentration.
Preparation of a 10× compound working solution: 78 μL of a cell culture medium was added to a V-bottomed 96-well plate, and 2 μL of the compound solution of each concentration was pipetted from the 400× compound stock plate into the cell culture medium in the 96-well plate. Then, 2 μL of DMSO was added to vehicle control and blank control. […]
The detection was performed according to the instructions of the Promega CellTiter-Glo Luminescent Cell Viability Assay kit (Promega-G7573). The luminescence signal was detected on the En Vision® Multi-mode Plate Reader (En Vision 2104-10). […]

A short description of data set [2]: Metabolic stability in kidney S9, Cynomolgus macaques. The data set is classed as in vitro ADME. The note with it: cynomolgus macaque. As to the method:
Test Example 8: Metabolic Stability of the Compounds of the Present Invention in Kidney S9 from Mice, Rats, Cynomolgus Macaques, and Humans
To investigate the metabolic stability of the compounds of the present invention in kidney S9 from mice, rats, Cynomolgus macaques, and humans.
Materials: Kidney S9 from CD-1 mice, SD rats, Cynomolgus macaques, and humans were purchased from BioIVT or XenoTech LLC and stored in a −80° C. refrigerator.
Experimental procedure: Eight 96-well plates, designated T0, T5, T15, T30, T45, T60, Blank, and NCF60, were prepared. The first six incubation plates corresponded to reaction time points of 0, 5, 15, 30, 45, and 60 minutes, respectively. No test sample or control compound was added to the Blank plate.
The T0, T5, T15, T30, T45, and T60 plates were added with a 2 μL working solution of the test sample (10 mM of a solution of the compound to be tested in DMSO, diluted to 100 μM with 100% acetonitrile) and 100 μL of a S9 working solution (kidney S9 protein concentration of 1.0 mg/mL), and the Blank plate was only added with the S9 working solution. The above incubation plates were then placed in a 37° C. water bath for pre-incubation for about 10 minutes.
At the end of the pre-incubation, 98 μL of an auxiliary enzyme working solution was added to each sample well except the TO plate to start the reaction. […]

Data set [3] in a line: Pharmacokinetic analysis in rat plasma. The data set is classed as in vivo, SD rats. The note with it: Sprague-Dawley (SD), rat, SD rats, single IV 3 mg/kg, plasma. As to the method:
Test Example 5: Pharmacokinetic Analysis of the Compounds of the Present Invention in Rat Plasma
To test the pharmacokinetics of the compounds of the present invention in SD rats.
as §1, with “were tested in rats according to” for “were tested according to”, “a standard protocol. The compound” for “a standard protocol in Cynomolgus macaques. The compound”, “a vehicle. Two rats were given” for “a vehicle. Cynomolgus macaques were given”, “injection of 3 mg/kg of” for “injection of 1 mg/kg of”, “the compound of the present invention and the” for “the compound to be tested and the”

In the case of `CC[C@H](C)[C@@H]([C@@H](CC(=O)N1CCC[C@H]1[C@H](OC)[C@@H](C)C(=O)N[C@H](C)[C@@H](O)c1ccccc1)OC)N(C)C(=O)[C@@H](NC(=O)[C@H](C(C)C)N(C)C(=O)OCc1ccc(NC(=O)[C@H](CCCNC(N)=O)NC(=O)[C@@H](NC(=O)CCCC(=O)NCCC(=O)N(C)CC(=O)N(C)CC(=O)N(C)CC(=O)N(C)CC(=O)N(C)CC(=O)N(C)CC(=O)N(C)CC(=O)N(C)CC(=O)N(C)CC(=O)N(C)CC(=O)N[C@H]2CCCCNC(=O)C[C@@H](C(=O)N[C@H]3CSCCC(=O)N4CN5CN(C4)C(=O)CCSC(C)(C)[C@H](NC(=O)[C@@H](CC(=O)O)NC(=O)[C@H](Cc4cccc6ccccc46)NC(=O)[C@@H]4CCCN4C3=O)C(=O)N[C@@H](CCSC)C(=O)N[C@@H](CCCCNC(=N)N)C(=O)N[C@@H](CC(=O)O)C(=O)N[C@@H](Cc3c[nH]c4ccccc34)C(=O)N[C@@H](CO)C(=O)N[C@@H]([C@@H](C)O)C(=O)N3CCC[C@H]3C(=O)N3C[C@H](O)C[C@H]3C(=O)N[C@@H](Cc3c[nH]c4ccccc34)C(=O)N[C@H](C(N)=O)CSCCC5=O)NC(=O)CN(C)C2=O)C(C)C)cc1)C(C)C` [Acetate salt of PDC_2] (I: [Sar][Sar][Sar][Sar][Sar][Sar][Sar][Sar][Sar][Sar]K[Sar]DCP[1Nal][dD][Pen]M[hArg]DWSTP[Hyp]WC-NH2 / II: V[Cit][PABC][NMeV]V[Dil][Dolaproine]-X1; lactam I:11-I:13; linker I:14-I:18-I:28 via TATA; linker I:N-II:N via X2), in data set [1], the AUC(0-t) (as a rule, the area under the concentration-time curve up to a stated or last time point) came out at 1 µM·h; the C0 is 3.1 µM; the clearance (in general, the rate of elimination divided by the concentration) was found to be 3.6 mL/min/kg; the half-life – broadly, the time needed for the level to fall by half in the phase considered – is 1.5 h. In addition, the Vd in data set [1] (read-out: Vdss) worked out at 0.2 L/kg. Moreover, in the data set on MDA-MB-468 cells, the midpoint of inhibition, the IC50, lay at 32.3 nM; the Maximum inhibition rate is recorded as 86.28%; the Minimum inhibition rate is −10.28%. For the same compound, in data set [2], the half-life at 1 μM is greater than 2.42 h and the microsomal CLint – broadly, the capacity of the preparation to metabolise the compound, expressed as a volume cleared per time – at 1 μM was less than 9.6 µL/min/mg. In data set [3], this compound showed an AUC(0-t) of 4.4 µM·h, a C0 of 6.9 µM, a clearance of 2.7 mL/min/kg and a half-life of 0.7 h. Besides, the Vd in data set [3] (read-out: Vdss) was determined as 0.1 L/kg.
